According to US20130171170A1 (published 2013):
Positions count from the first letter of the chain named. Numbers in names are those of the source. Where “and” joins values, the source holds several entries; their conditions need not be identical. Equal values may be shown once.

How the values were obtained:
[1] = molecular target: T1, human CD22-beta-ECD-His tagged soluble antigen (human, UniProt P20273 22-681); assay: SPR (BIACORE 3000), antibody coupled to the chip, soluble CD22-beta-ECD-His injected, 25 C
T1 construct: also called soluble CD22 extracellular domain (ECD); Soluble Human CD22
T1 sequence: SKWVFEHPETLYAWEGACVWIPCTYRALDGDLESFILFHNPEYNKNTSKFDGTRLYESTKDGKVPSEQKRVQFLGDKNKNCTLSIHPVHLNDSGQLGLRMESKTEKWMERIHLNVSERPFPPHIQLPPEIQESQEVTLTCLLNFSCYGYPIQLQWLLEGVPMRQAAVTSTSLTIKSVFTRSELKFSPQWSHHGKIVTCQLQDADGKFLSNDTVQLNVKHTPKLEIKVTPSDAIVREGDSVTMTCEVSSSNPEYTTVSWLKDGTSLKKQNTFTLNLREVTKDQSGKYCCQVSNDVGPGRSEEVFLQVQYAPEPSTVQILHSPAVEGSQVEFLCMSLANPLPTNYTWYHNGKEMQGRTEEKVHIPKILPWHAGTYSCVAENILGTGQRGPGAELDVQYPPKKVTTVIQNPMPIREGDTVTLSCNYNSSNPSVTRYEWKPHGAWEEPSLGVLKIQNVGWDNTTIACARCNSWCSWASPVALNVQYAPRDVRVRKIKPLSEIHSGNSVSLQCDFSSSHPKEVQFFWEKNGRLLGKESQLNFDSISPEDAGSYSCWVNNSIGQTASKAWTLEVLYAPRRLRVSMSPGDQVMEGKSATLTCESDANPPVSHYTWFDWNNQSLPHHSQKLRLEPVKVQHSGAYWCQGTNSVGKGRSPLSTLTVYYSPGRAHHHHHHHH
Experimental: The binding affinity of murine and humanized 10F4 antibody for soluble CD22 extracellular domain (ECD) was determined by surface plasmon resonance measurement using a BIACORE® 3000 system (Biacore, Inc., Piscataway, N.J.). Briefly, carboxymethylated dextran biosensor chips (CMS, Biacore Inc.) were activated with N-ethyl-N′-(3-dimethylaminopropyl)-carbodiimide hydrochloride (EDC) and N-hydroxysuccinimide (NHS) according to the supplier's instructions. These activated chips were coated with anti-CD22 IgG1 antibody 10F4 (murine or humanized) by dilution to 5 μg/ml with 10 mM sodium acetate, pH 4.8, before injection at a flow rate of […] to achieve approximately 500 response units (RU) of coupled antibody. Next, 1M ethanolamine was injected to block unreacted groups. […] Association rates (kₒₙ) and dissociation rates (koff) were calculated using a simple one-to-one Langmuir binding model (BIAevaluation Software version 3.2). The equilibrium dissociation constant (Kd) was calculated as the ratio koff/kₒₙ. Anti-CD22 antibody, RFB4, was used as a control (Chemicon International, Inc., Temecula, Calif., catalog no. CBL147).

[2] = molecular target: T2, cynomolgus monkey (cyno) CD22 expressed on the surface of CHO cells (cynomolgus monkey); assay: cell-based competitive binding of 125I-labelled against unlabelled antibody on CHO cells, Scatchard analysis; repeated assays
T2 construct: residues 1-19 (signal) should be removed
T2 chain: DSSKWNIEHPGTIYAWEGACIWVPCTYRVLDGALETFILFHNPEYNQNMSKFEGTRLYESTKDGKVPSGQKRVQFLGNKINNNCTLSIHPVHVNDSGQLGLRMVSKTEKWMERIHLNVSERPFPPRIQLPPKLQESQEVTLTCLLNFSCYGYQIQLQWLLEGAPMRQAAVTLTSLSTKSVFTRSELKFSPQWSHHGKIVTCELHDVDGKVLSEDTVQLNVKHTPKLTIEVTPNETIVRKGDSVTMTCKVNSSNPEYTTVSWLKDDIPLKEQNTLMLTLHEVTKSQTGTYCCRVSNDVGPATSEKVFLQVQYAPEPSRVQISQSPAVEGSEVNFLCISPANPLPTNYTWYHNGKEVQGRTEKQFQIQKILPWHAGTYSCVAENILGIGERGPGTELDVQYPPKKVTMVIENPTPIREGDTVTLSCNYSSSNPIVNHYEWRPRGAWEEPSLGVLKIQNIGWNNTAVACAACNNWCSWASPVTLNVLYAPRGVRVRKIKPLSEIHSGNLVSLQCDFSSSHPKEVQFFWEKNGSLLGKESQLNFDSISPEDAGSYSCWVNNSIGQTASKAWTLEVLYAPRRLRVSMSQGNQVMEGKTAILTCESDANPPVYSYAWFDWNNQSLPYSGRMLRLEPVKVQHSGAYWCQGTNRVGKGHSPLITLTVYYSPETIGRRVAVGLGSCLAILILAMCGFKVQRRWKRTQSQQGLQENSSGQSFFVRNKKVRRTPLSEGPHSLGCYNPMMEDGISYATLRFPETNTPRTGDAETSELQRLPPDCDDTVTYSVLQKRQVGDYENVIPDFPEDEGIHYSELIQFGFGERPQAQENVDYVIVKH
Experimental: (§1) Briefly, CHO cells stably expressing full length human CD22 (SEQ ID NO:27) or cynomolgus monkey (cyno) CD22 (SEQ ID NO:31). […] A cell-based, competitive binding assay was performed using serially diluted, unlabeled anti-CD22 antibody. Antibodies were allowed to bind to the cells for 4 hours at 4° C. Binding affinity, KD, of the antibodies was determined in accordance with standard Scatchard analysis performed utilizing a non-linear curve fitting program (see, for example, Munson et al., Anal Biochem, 107: 220-239, 1980).

[3] = molecular target: T2, cynomolgus monkey (cyno) CD22 expressed …; assay: cell-based competitive binding of 125I-labelled against unlabelled antibody on CHO cells, 4 h at 4 C, Scatchard analysis
Experimental: as §1

[4] = molecular target: T3, CD22 expressed on the surface of BJAB-lucs cells (human, UniProt P20273 20-847); assay: FACS on BJAB-lucs cells; biotinylated goat anti-huFc plus Streptavidin-PE
T3 construct: whole, on cells; also called CD22 expressed on BJAB-lucs cells
T3 sequence (looked up): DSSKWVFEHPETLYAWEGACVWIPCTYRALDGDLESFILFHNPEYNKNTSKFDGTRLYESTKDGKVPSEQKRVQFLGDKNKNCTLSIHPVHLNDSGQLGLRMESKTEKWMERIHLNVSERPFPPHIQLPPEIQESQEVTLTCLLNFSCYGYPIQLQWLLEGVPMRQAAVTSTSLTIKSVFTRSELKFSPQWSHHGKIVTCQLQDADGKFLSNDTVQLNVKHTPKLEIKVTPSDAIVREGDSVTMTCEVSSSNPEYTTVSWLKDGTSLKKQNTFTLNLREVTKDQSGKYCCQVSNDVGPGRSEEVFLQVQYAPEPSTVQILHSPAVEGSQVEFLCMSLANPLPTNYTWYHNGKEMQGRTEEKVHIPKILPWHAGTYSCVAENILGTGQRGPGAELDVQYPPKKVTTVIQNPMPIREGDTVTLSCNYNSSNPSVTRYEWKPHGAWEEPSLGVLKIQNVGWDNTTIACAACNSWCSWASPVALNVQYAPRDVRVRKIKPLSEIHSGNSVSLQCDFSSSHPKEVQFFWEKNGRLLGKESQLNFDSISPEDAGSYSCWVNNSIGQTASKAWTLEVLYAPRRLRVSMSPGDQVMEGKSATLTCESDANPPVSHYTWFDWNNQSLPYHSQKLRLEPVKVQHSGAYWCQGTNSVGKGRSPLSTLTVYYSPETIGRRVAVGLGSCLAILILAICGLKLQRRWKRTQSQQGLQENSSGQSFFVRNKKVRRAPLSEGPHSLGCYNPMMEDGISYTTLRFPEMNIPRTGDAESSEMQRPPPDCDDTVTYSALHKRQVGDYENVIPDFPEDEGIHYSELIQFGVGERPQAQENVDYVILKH
Text: Anti-CD22 antibody bound to the cell surface was detected using biotinylated goat anti-huFc plus Streptavidin-PE.

B1: Chimeric 10F4 (antibody, V domains shown)
VH: QVQLQQSGPELVKPGASVKISCKASGYEFSRSWMNWVKQRPGQGREWIGRIYPGDGDTNYSGKFKGKATLTADKSSSTAYMQLSSLTSVDSAVYFCARDGSSWDWYFDVWGAGTTVTVSS
VL: DILMTQTPLSLPVSLGDQASISCRSSQSIVHSNGNTFLEWYLQKPGQSPKLLIYKVSNRFSGVPDRFSGSGSGTDFTLKISRVEAEDLGVYYCFQGSQFPYTFGGGTKVEIK
notes: also called murine chimeric 10F4
Kd [1]: 16 nM | koff [1]: 0.00042 s⁻¹ | kon [1]: 26000 M⁻¹ s⁻¹

B2: humanized 10F4 version 1 antibody (antibody, IgG1, V domains shown)
VH: EVQLVESGGGLVQPGGSLRLSCAASGYEFSRSWMNWVRQAPGKGLEWVGRIYPGDGDTNYSGKFKGRFTISADTSKNTAYLQMNSLRAEDTAVYYCARDGSSWDWYFDVWGQGTLVTVSS
VL: DIQMTQSPSSLSASVGDRVTITCRSSQSIVHSNGNTFLEWYQQKPGKAPKLLIYKVSNRFSGVPSRFSGSGSGTDFTLTISSLQPEDFATYYCFQGSQFPYTFGQGTKVEIKR
notes: only variable domains are tied to v1; also called humanized 10F4v1; hu10F4v1
Kd [2]: 1.4 nM and 1.8 nM

B3: humanized 10F4 version 2 antibody (antibody, human IgG1, kappa)
heavy: not shown
light: DIQMTQSPSSLSASVGDRVTITCRSSQSIVHSVGNTFLEWYQQKPGKAPKLLIYKVSNRFSGVPSRFSGSGSGTDFTLTISSLQPEDFATYYCFQGSQFPYTFGQGTKVEIKRTVAAPSVFIFPPSDEQLKSGTASVVCLLNNFYPREAKVQWKVDNALQSGNSQESVTEQDSKDSTYSLSSTLTLSKADYEKHKVYACEVTHQGLSSPVTKSFNRGEC
notes: Differs from hu10F4v1 by N28V (Kabat) in HVR-L1; Mature protein identical to hu10F4v3; also called humanized 10F4v2; hu10F4v2
Kd [3]: 2.1 nM

B4: thio hu LC(V205C) 10F4v3-MCvcPAB-MMAE (antibody, human IgG1, kappa)
heavy: not shown
light: B3 light with V210C
modifications: MC-val-cit-PAB-MMAE on the engineered Cys at Kabat position 205 (sequential position 210)
notes: Cysteine engineered IgG1 (ThioMab) drug conjugate; also called thio hu LC-10F4v3-MC-val-cit-PAB-MMAE; Thio 10F4v3-LC(V205C)-MCvcPAB-MMAE
binding result [4]: binds
